Measured values published in PMC3777949, “Dimerization Mediates Thermo-Adaptation, Substrate Affinity and Transglycosylation in a Highly Thermostable Maltogenic Amylase of Geobacillus thermoleovorans” (PLoS ONE, 2013).

What was measured:
[1] = substrate: OC[C@H]1O[C@@H]2O[C@H]3[C@H](O)[C@@H](O)[C@@H](O[C@H]4[C@H](O)[C@@H](O)[C@@H](O[C@H]5[C@H](O)[C@@H](O)[C@@H](O[C@H]6[C@H](O)[C@@H](O)[C@@H](O[C@H]7[C@H](O)[C@@H](O)[C@@H](O[C@H]1[C@H](O)[C@H]2O)O[C@@H]7CO)O[C@@H]6CO)O[C@@H]5CO)O[C@@H]4CO)O[C@@H]3CO; test: DNSA reducing-sugar assay; assay type: biochemical, Geobacillus thermoleovorans; conditions: 100 mM sodium phosphate pH 7.0, 80°C, dimeric mutant
Excerpt: (§1) DNSA reducing-sugar assay on dimeric Gt-Mamy

[2] = substrate: OC[C@H]1O[C@@H]2O[C@H]3[C@H](O)[C@@H](O)[C@@H](O[C@H]4[C@H](O)[C@@H](O)[C@@H](O[C@H]5[C@H](O)[C@@H](O)[C@@H](O[C@H]6[C@H](O)[C@@H](O)[C@@H](O[C@H]7[C@H](O)[C@@H](O)[C@@H](O[C@H]8[C@H](O)[C@@H](O)[C@@H](O[C@H]1[C@H](O)[C@H]2O)O[C@@H]8CO)O[C@@H]7CO)O[C@@H]6CO)O[C@@H]5CO)O[C@@H]4CO)O[C@@H]3CO; test: DNSA reducing-sugar assay; assay type: biochemical, Geobacillus thermoleovorans; conditions: 100 mM sodium phosphate pH 7.0, 80°C, dimeric mutant
Excerpt: as §1

B1: dimeric Gt-Mamy (Geobacillus thermoleovorans; D109E) (protein)
chain: MRKEAIHHRSTDNFAYAYDSETLHLRLQTKKHDVDHVELLFGDPYEWHDGAWQFQTMPMRKTGSDGLFDYWFAEVKPPYRRLRYGFVLRAGDEKLVYTEKGFYHEAPSEDTAYYFCFPFLHRVDLFQAPDWVKDTVWYQIFPERFANGNPAISPKGARPWGSEDPTPTSFFGGDLQGIIDHLDYLADLGITGIYLTPIFRAPSNHKYDTADYFEIDPHFGDKETLKTLVKRCHEKGIRVMLDAVFNHCGYEFAPFQDVLKNGAASRYKDWFHIREFPLQTEPRPNYDTFAFVPQMPKLNTAHPEVKRYLLDVATYWIREFDIDGWRLDVANEIDHEFWREFRQAVKALKPDVYILGEIWHDAMPWLRGDQFDAVMNYPFTDGALRFFAKEEISARQFADIMVRLLHSYPKHVNEAAFNLLGSHDTPRLLTICGDDVRKAKLLFLFQLTFTGSPCIYYGDEIGMTGGNDPECRKCMVWDPEKQNKELYEHVKQLIALRRQYRALRRGDVAFLAADDEANHLVYEKTDGNETVMIIINRSNEAAEIPMPIDARGKWLVNLLTGERFAAEAETLCVSLPPYGFVLYAVESW
notes: full length 588 aa, pCOLD I (Ni-NTA purified, tag kept), E. coli BL21(DE3); homodimer 145 kDa separated by Sephacryl S-200
- Km [1]: 0.21 mg/mL
- Km [2]: 0.60 mg/mL
